Data on three molecules can be found in patent publication US20250129174A1 (LTZ THERAPEUTICS, published 2025).

Assay [1] deals with T1, human 4-1BB (human, UniProt Q07011 24-255).
T1 construct: whole, on cells; The construct expressed in the CHO cells is not described further; also called h4-1BB; CD137
The assay can be described thus: flow cytometry on CHO cells expressing human 4-1BB, anti-human IgG PE secondary antibody, percent of positive cells. On the procedure:
Binding abilities of 4-1BB×CCR8 bispecific antibodies (BsAb) to CHO cells expressing human 4-1BB were evaluated. About 50,000 CHO cells expressing human 4-1BB were incubated with serially diluted antibodies (4-1BB-2×CCR8-2 (LC1) BsAb, 4-1BB-2×CCR8-2 (LC2) BsAb, and 4-1BB-2×CCR8-2 (HC) BsAb) in FACS buffer (PBS+0.5% BSA) for 30 minutes on ice. After incubation, cells were washed twice and detected with anti-human IgG PE secondary antibody (Jackson ImmunoResearch, Cat. #: 109-116-170). […] As shown in FIGS. 12A-12B, all the three 4-1BB×CCR8 bispecific antibodies bind to CHO cells expressing human 4-1BB very well.

Assay [2] deals with T2, human CCR8 (human, UniProt P51685 1-355).
T2 construct: whole, on cells; The construct expressed in the CHO cells is not described further; also called hCCR8; C-C motif chemokine receptor 8
T2 sequence (P51685 whole entry): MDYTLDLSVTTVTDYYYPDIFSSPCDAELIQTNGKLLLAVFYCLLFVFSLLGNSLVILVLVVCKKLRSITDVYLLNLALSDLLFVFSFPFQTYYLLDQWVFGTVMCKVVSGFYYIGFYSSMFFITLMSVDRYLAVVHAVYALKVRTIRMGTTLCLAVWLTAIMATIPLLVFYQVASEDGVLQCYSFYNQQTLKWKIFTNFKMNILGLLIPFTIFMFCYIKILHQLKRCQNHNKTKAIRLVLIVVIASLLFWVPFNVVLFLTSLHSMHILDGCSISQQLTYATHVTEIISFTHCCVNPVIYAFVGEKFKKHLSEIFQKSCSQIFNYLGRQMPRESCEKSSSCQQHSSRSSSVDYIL
The assay can be described thus: flow cytometry on CHO cells expressing human CCR8, MFI of PE. On the procedure: Binding abilities of 4-1BB×CCR8 bispecific antibodies to CHO cells expressing human CCR8 were evaluated. About 50,000 CHO cells expressing human CCR8 were incubated with serially diluted antibodies (4-1BB-2×CCR8-2 (LC1) BsAb, 4-1BB-2×CCR8-2 (LC2) BsAb and 4-1BB-2×CCR8-2 (HC) BsAb) in FACS buffer (PBS+0.5% BSA) for 30 minutes on ice. After incubation, cells were washed twice and detected with […] The mean fluorescence intensity (MFI of PE) of each antibody was determined and plotted using GraphPad Prism software (Version 9.4.1; GraphPad Software Inc.). As shown in FIGS. 13A-13B, all the three 4-1BB×CCR8 bispecific antibodies bind to CHO cells expressing human CCR8 very well.
On the technique in general: Flow cytometry measures light scatter and fluorescence of single cells or particles in a stream.

For assay [3], the target named is T2, human CCR8. Briefly: flow cytometry on CHO cells expressing human CCR8, percent of positive cells. As for the experimental part: Binding abilities of 4-1BB×CCR8 bispecific antibodies to CHO cells expressing human CCR8 were evaluated. About 50,000 CHO cells expressing human CCR8 were incubated with serially diluted antibodies (4-1BB-2×CCR8-2 (LC1) BsAb, 4-1BB-2×CCR8-2 (LC2) BsAb and 4-1BB-2×CCR8-2 (HC) BsAb) in FACS buffer (PBS+0.5% BSA) for 30 minutes on ice. […] As shown in FIGS. 13A-13B, all the three 4-1BB×CCR8 bispecific antibodies bind to CHO cells expressing human CCR8 very well.

T1 sequence (Q07011 24-255): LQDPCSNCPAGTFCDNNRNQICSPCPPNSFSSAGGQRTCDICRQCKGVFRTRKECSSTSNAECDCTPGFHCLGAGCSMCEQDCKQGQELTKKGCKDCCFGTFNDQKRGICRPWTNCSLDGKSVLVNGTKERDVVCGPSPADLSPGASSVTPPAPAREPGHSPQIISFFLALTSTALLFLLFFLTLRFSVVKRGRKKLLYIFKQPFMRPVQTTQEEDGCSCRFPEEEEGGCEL

B1: 4-1BB-2×CCR8-2 (LC2) BsAb (bispecific antibody, human IgG1, kappa)
heavy: not shown
light: DIVMTQTPLSLSVTPGQPASISCRSSQSLFHSSGNTYLHWYLQKPGQPPQLLIYKVSNRFSGVPDRFSGSGSGTDFTLKISRVEAEDVGVYYCSQSTHVPFTFGQGTKLEIKRTVAAPSVFIFPPSDEQLKSGTASVVCLLNNFYPREAKVQWKVDNALQSGNSQESVTEQDSKDSTYSLSSTLTLSKADYEKHKVYACEVTHQGLSSPVTKSFNRGECGGGGSGGGGSGGGGSDVVLTQSPLSLPVTLGQPASISCRSSQSLLDSDGNTYLYWFQQRPGQSPRRLIYLVSNLGSGVPDRFSGSGSGTDFTLKISRVEAEDVGVYYCMQPTHAPYTFGQGTKLEIKGGGGSGGGGSGGGGSGGGGSEVQLVQSGAEVKKPGSSVKVSCKASDYTFNDYWVSWVRQAPGQGLEWIGEIYPNSGATNFNGKFRGRATLTVDNSASTAYMELSSLRSEDTAVYYCTREYTRDWFAYWGQGTLVTVSS
notes: The light chain is the CCR8-2 kappa light chain with the 4-1BB-2 scFv (VL-linker-VH) joined by a linker to its C-terminus; also called 4-1BB-2×CCR8-2 (LC2) bispecific antibody
The EC50 (read off the curve) is the concentration that produces a half-maximal response. Lower therefore signals greater potency. On to B1, for which the “EC50 (read off the curve)” value in assay [1] was about 0.7 nM. Moreover, in assay [2], the binding result was “binds”.

B2: 4-1BB-2×CCR8-2 (HC) BsAb (bispecific antibody, human IgG1, kappa)
heavy: not shown
light: DIVMTQTPLSLSVTPGQPASISCRSSQSLFHSSGNTYLHWYLQKPGQPPQLLIYKVSNRFSGVPDRFSGSGSGTDFTLKISRVEAEDVGVYYCSQSTHVPFTFGQGTKLEIKRTVAAPSVFIFPPSDEQLKSGTASVVCLLNNFYPREAKVQWKVDNALQSGNSQESVTEQDSKDSTYSLSSTLTLSKADYEKHKVYACEVTHQGLSSPVTKSFNRGEC
notes: The light chain is the CCR8-2 kappa light chain; also called 4-1BB-2×CCR8-2 (HC) bispecific antibody
In the case of B2, in assay [1], the “EC50 (read off the curve)” value was about 0.7 nM. In assay [2], the binding result was “binds”.

B3: 4-1BB-2×CCR8-2 (LC1) BsAb (bispecific antibody, human IgG1, kappa)
heavy: not shown
light: DVVLTQSPLSLPVTLGQPASISCRSSQSLLDSDGNTYLYWFQQRPGQSPRRLIYLVSNLGSGVPDRFSGSGSGTDFTLKISRVEAEDVGVYYCMQPTHAPYTFGQGTKLEIKGGGGSGGGGSGGGGSGGGGSEVQLVQSGAEVKKPGSSVKVSCKASDYTFNDYWVSWVRQAPGQGLEWIGEIYPNSGATNFNGKFRGRATLTVDNSASTAYMELSSLRSEDTAVYYCTREYTRDWFAYWGQGTLVTVSSGGGGSGGGGSGGGGSDIVMTQTPLSLSVTPGQPASISCRSSQSLFHSSGNTYLHWYLQKPGQPPQLLIYKVSNRFSGVPDRFSGSGSGTDFTLKISRVEAEDVGVYYCSQSTHVPFTFGQGTKLEIKRTVAAPSVFIFPPSDEQLKSGTASVVCLLNNFYPREAKVQWKVDNALQSGNSQESVTEQDSKDSTYSLSSTLTLSKADYEKHKVYACEVTHQGLSSPVTKSFNRGEC
notes: The light chain is the 4-1BB-2 scFv (VL-linker-VH) joined by a linker to the N-terminus of the CCR8-2 kappa light chain; also called 4-1BB-2×CCR8-2 (LC1) bispecific antibody
As for B3, the “EC50 (read off the curve)” value in assay [1] was about 0.06 nM; in assay [3] it was about 0.3 nM; in assay [2], about 2 nM.
